# The supplement of paper PMC5998384
# How the values were obtained:
# HeLa Kyoto [1] = assay: solubility in G1/S (NP-40 vs SDS abundance) (log2 ratio); higher = more soluble; conditions: cell cycle stage: G1/S
# HeLa Kyoto [2] = assay: melting temperature (median over replicates), in situ; higher = more thermally stable
# HeLa Kyoto [3] = assay: solubility change mitosis vs G1/S (difference of NP-40 vs SDS log2 ratios) (log2 ratio difference); higher = more soluble in mitosis
# 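Throughout, for melting temperature (median over replicates), in situ: HeLa Kyoto cells synchronized by double thymidine or nocodazole block, proteins quantified by TMT10plex mass spectrometry, three independent biological replicates.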
# 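Throughout, for solubility change mitosis vs G1/S (difference of NP-40 vs SDS log2 ratios): synchronized HeLa Kyoto cells (double thymidine block for G1/S, nocodazole release for mitosis), protein amounts in NP-40 versus SDS lysates quantified by mass spectrometry, three biological replicates.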
# 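Throughout, for solubility in G1/S (NP-40 vs SDS abundance): HeLa Kyoto cells arrested at G1/S by double thymidine block, proteins quantified by TMT10plex mass spectrometry in mild NP-40 versus SDS extracts, three biological replicates.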
Sequence,solubility in G1/S (log2) (HeLa Kyoto [1]),melting temperature (HeLa Kyoto [2]; cell cycle stage: mitosis) [°C],solubility change mitosis (log2) (HeLa Kyoto [3]),melting temperature (HeLa Kyoto [2]; cell cycle stage: G1/S) [°C]
MNSTEFTEDVEEVLKSITVKVETEAEDAALDCSVNSRTSEKHSVDSVLTALQDSSKRKQLVSDGLLDSVPGVKRRRLIPEALLAGMRNRENSSPCQGNGEQAGRGRSLGNVWPGEEEPCNDATTPSYKKPLYGISHKIMEKKNPPSGDLLNVYELFEKANASNSPSSLRLLNEPQKRDCGSTGAGTDNDPNIYFLIQKMFYMLNTLTSNMSQLHSKVDLLSLEVSRIKKQVSPTEMVAKFQPPPEYQLTAAELKQIVDQSLSGGDLACRLLVQLFPELFSDVDFSRGCSACGFAAKRKLESLHLQLIRNYVEVYYPSVKDTAVWQAECLPQLNDFFSRFWAQREMEDSQPSGQVASFFEAEQVDPGHFLDNKDQEEALSLDRSSTIASDHVVDTQDLTEFLDEASSPGEFAVFLLHRLFPELFDHRKLGEQYSCYGDGGKQELDPQRLQIIRNYTEIYFPDMQEEEAWLQQCAQRINDELEGLGLDAGSEGDPPRDDCYDSSSLPDDISVVKVEDSFEGERPGRRSKKIWLVPIDFDKLEIPQPDFEVPGADCLLSKEQLRSIYESSLSIGNFASRLLVHLFPELFTHENLRKQYNCSGSLGKKQLDPSRIKLIRHYVQLLYPRAKNDRVWTLEFVGKLDERCRRRDTEQRRSYQQQRKVHVPGPECRDLTSYAINPERFREEFEGPPLPPERSSKDFCKIPLDELVVPSPDFPVPSPYLLSDKEVREIVQQSLSVGNFAARLLVRLFPELFTAENLRLQYNHSGACNKKQLDPTRLRLIRHYVEAVYPVEKMEEVWHYECIPSIDERCRRPNRKKCDILKKAKKVEK [BEND3],-0.105,48.1,0.152,
MPGGCSRGPAAGDGRLRLARLALVLLGWVSSSSPTSSASSFSSSAPFLASAVSAQPPLPDQCPALCECSEAARTVKCVNRNLTEVPTDLPAYVRNLFLTGNQLAVLPAGAFARRPPLAELAALNLSGSRLDEVRAGAFEHLPSLRQLDLSHNPLADLSPFAFSGSNASVSAPSPLVELILNHIVPPEDERQNRSFEGMVVAALLAGRALQGLRRLELASNHFLYLPRDVLAQLPSLRHLDLSNNSLVSLTYVSFRNLTHLESLHLEDNALKVLHNGTLAELQGLPHIRVFLDNNPWVCDCHMADMVTWLKETEVVQGKDRLTCAYPEKMRNRVLLELNSADLDCDPILPPSLQTSYVFLGIVLALIGAIFLLVLYLNRKGIKKWMHNIRDACRDHMEGYHYRYEINADPRLTNLSSNSDV [TPBG],0.234,53.4,0.104,53.4
MPLRKMKIPFLLLFFLWEAESHAASRPNIILVMADDLGIGDPGCYGNKTIRTPNIDRLASGGVKLTQHLAASPLCTPSRAAFMTGRYPVRSGMASWSRTGVFLFTASSGGLPTDEITFAKLLKDQGYSTALIGKWHLGMSCHSKTDFCHHPLHHGFNYFYGISLTNLRDCKPGEGSVFTTGFKRLVFLPLQIVGVTLLTLAALNCLGLLHVPLGVFFSLLFLAALILTLFLGFLHYFRPLNCFMMRNYEIIQQPMSYDNLTQRLTVEAAQFIQRNTETPFLLVLSYLHVHTALFSSKDFAGKSQHGVYGDAVEEMDWSVGQILNLLDELRLANDTLIYFTSDQGAHVEEVSSKGEIHGGSNGIYKGGKANNWEGGIRVPGILRWPRVIQAGQKIDEPTSNMDIFPTVAKLAGAPLPEDRIIDGRDLMPLLEGKSQRSDHEFLFHYCNAYLNAVRWHPQNSTSIWKAFFFTPNFNPVGSNGCFATHVCFCFGSYVTHHDPPLLFDISKDPRERNPLTPASEPRFYEILKVMQEAADRHTQTLPEVPDQFSWNNFLWKPWLQLCCPSTGLSCQCDREKQDKRLSR,0.0818,55.3,-0.0688,55.8
MPVKKKRKSPGVAAAVAEDGGLKKCKISSYCRSQPPARLISGEEHFSSKKCLAWFYEYAGPDEVVGPEGMEKFCEDIGVEPENIIMLVLAWKLEAESMGFFTKEEWLKGMTSLQCDCTEKLQNKFDFLRSQLNDISSFKNIYRYAFDFARDKDQRSLDIDTAKSMLALLLGRTWPLFSVFYQYLEQSKYRVMNKDQWYNVLEFSRTVHADLSNYDEDGAWPVLLDEFVEWQKVRQTS [DCUN1D5],0.214,47.5,-0.0762,
MRCCHICKLPGRVMGIRVLRLSLVVILVLLLVAGALTALLPSVKEDKMLMLRREIKSQGKSTMDSFTLIMQTYNRTDLLLKLLNHYQAVPNLHKVIVVWNNIGEKAPDELWNSLGPHPIPVIFKQQTANRMRNRLQVFPELETNAVLMVDDDTLISTPDLVFAFSVWQQFPDQIVGFVPRKHVSTSSGIYSYGSFEMQAPGSGNGDQYSMVLIGASFFNSKYLELFQRQPAAVHALIDDTQNCDDIAMNFIIAKHIGKTSGIFVKPVNMDNLEKETNSGYSGMWHRAEHALQRSYCINKLVNIYDSMPLRYSNIMISQFGFPYANYKRKI [EXTL2],0.132,58.5,-0.23,56.7
MRRAWILLTLGLVACVSAESRAELTSDKDMYLDNSSIEEASGVYPIDDDDYASASGSGADEDVESPELTTSRPLPKILLTSAAPKVETTTLNIQNKIPAQTKSPEETDKEKVHLSDSERKMDPAEEDTNVYTEKHSDSLFKRTEVLAAVIAGGVIGFLFAIFLILLLVYRMRKKDEGSYDLGERKPSSAAYQKAPTKEFYA [SDC2],-0.422,59.2,-0.902,55.6
MSAARESHPHGVKRSASPDDDLGSSNWEAADLGNEERKQKFLRLMGAGKKEHTGRLVIGDHKSTSHFRTGEEDKKINEELESQYQQSMDSKLSGRYRRHCGLGFSEVEDHDGEGDVAGDDDDDDDDSPDPESPDDSESDSESEKEESAEELQAAEHPDEVEDPKNKKDAKSNYKMMFVKSSGS [SMAP],0.338,,0.413,55
MSDKPDMAEIEKFDKSKLKKTETQEKNPLPSKETIEQEKQAGES [TMSB4X],-0.978,50.4,0.302,52.9
MSDLEDDETPQLSAHALAALQEFYAEQKQQIEPGEDDKYNIGIIEENWQLSQFWYSQETALQLAQEAIAAVGEGGRIACVSAPSVYQKLRELCRENFSIYIFEYDKRFAMYGEEFIFYDYNNPLDLPERIAAHSFDIVIADPPYLSEECLRKTSETVKYLTRGKILLCTGAIMEEQAAELLGVKMCTFVPRHTRNLANEFRCYVNYDSGLDCGI [N6AMT2],-0.331,50.6,0.0973,
MSGSVLFTAGERWRCFLTPSRSSLYWALHNFCCRKKSTTPKKITPNVTFCDENAKEPENALDKLFSSEQQASILHVLNTASTKELEAFRLLRGRRSINIVEHRENFGPFQNLESLMNVPLFKYKSTVQVCNSILCPKTGREKRKSPENRFLRKLLKPDIERERLKAVNSIISIVFGTRRIAWAHLDRKLTVLDWQQSDRWSLMRGIYSSSVYLEEISSIISKMPKADFYVLEKTGLSIQNSSLFPILLHFHIMEAMLYALLNKTFAQDGQHQVLSMNRNAVGKHFELMIGDSRTSGKELVKQFLFDSILKADPRVFFPSDKIVHYRQMFLSTELQRVEELYDSLLQAIAFYELAVFDSQP [TEFM],-0.375,49.1,0.119,50.9
MSLKMDNRDVAGKANRWFGVAPPKSGKMNMNILHQEELIAQKKREIEAKMEQKAKQNQVASPQPPHPGEITNAHNSSCISNKFANDGSFLQQFLKLQKAQTSTDAPTSAPSAPPSTPTPSAGKRSLLISRRTGLGLASLPGPVKSYSHAKQLPVAHRPSVFQSPDEDEEEDYEQWLEIKVSPPEGAETRKVIEKLARFVAEGGPELEKVAMEDYKDNPAFAFLHDKNSREFLYYRKKVAEIRKEAQKSQAASQKVSPPEDEEVKNLAEKLARFIADGGPEVETIALQNNRENQAFSFLYEPNSQGYKYYRQKLEEFRKAKASSTGSFTAPDPGLKRKSPPEALSGSLPPATTCPASSTPAPTIIPAPAAPGKPASAATVKRKRKSRWGPEEDKVELPPAELVQRDVDASPSPLSVQDLKGLGYEKGKPVGLVGVTELSDAQKKQLKEQQEMQQMYDMIMQHKRAMQDMQLLWEKAVQQHQHGYDSDEEVDSELGTWEHQLRRMEMDKTREWAEQLTKMGRGKHFIGDFLPPDELEKFMETFKALKEGREPDYSEYKEFKLTVENIGYQMLMKMGWKEGEGLGSEGQGIKNPVNKGTTTVDGAGFGIDRPAELSKEDDEYEAFRKRMMLAYRFRPNPLNNPRRPYY [SUGP1],0.221,50.8,0.255,47.3
MSLVIRNLQRVIPIRRAPLRSKIEIVRRILGVQKFDLGIICVDNKNIQHINRIYRDRNVPTDVLSFPFHEHLKAGEFPQPDFPDDYNLGDIFLGVEYIFHQCKENEDYNDVLTVTATHGLCHLLGFTHGTEAEWQQMFQKEKAVLDELGRRTGTRLQPLTRGLFGGS [YBEY],-0.21,49.7,0.0965,45.4
MSQAEFEKAAEEVRHLKTKPSDEEMLFIYGHYKQATVGDINTERPGMLDFTGKAKWDAWNELKGTSKEDAMKAYINKVEELKKKYGI [DBI],-0.236,53.8,0.148,53.7
MSSKKAKTKTTKKRPQRATSNVFAMFDQSQIQEFKEAFNMIDQNRDGFIDKEDLHDMLASLGKNPTDAYLDAMMNEAPGPINFTMFLTMFGEKLNGTDPEDVIRNAFACFDEEATGTIQEDYLRELLTTMGDRFTDEEVDELYREAPIDKKGNFNYIEFTRILKHGAKDKDD [MYL12B],0.24,52.7,0.538,54
MSSPMPDCTSKCRSLKHALDVLSVVTKGSENQIKAFLSSHCYNAATIKDVFGRNALHLVSSCGKKGVLDWLIQKGVDLLVKDKESGWTALHRSIFYGHIDCVWSLLKHGVSLYIQDKEGLSALDLVMKDRPTHVVFKNTDPTDVYTWGDNTNFTLGHGSQNSKHHPELVDLFSRSGIYIKQVVLCKFHSVFLSQKGQVYTCGHGPGGRLGHGDEQTCLVPRLVEGLNGHNCSQVAAAKDHTVVLTEDGCVYTFGLNIFHQLGIIPPPSSCNVPRQIQAKYLKGRTIIGVAAGRFHTVLWTREAVYTMGLNGGQLGCLLDPNGEKCVTAPRQVSALHHKDIALSLVAASDGATVCVTTRGDIYLLADYQCKKMASKQLNLKKVLVSGGHMEYKVDPEHLKENGGQKICILAMDGAGRVFCWRSVNSSLKQCRWAYPRQVFISDIALNRNEILFVTQDGEGFRGRWFEEKRKSSEKKEILSNLHNSSSDVSYVSDINSVYERIRLEKLTFAHRAVSVSTDPSGCNFAILQSDPKTSLYEIPAVSSSSFFEEFGKLLREADEMDSIHDVTFQVGNRLFPAHKYILAVHSDFFQKLFLSDGNTSEFTDIYQKDEDSAGCHLFVVEKVHPDMFEYLLQFIYTDTCDFLTHGFKPRIHLNKNPEEYQGTLNSHLNKVNFHEDDNQKSAFEVYKSNQAQTVSERQKSKPKSCKKGKNIREDDPVRMLQTVAKKFDFSNLSSRLDGVRFENEKINVIAKNTGNKLKLSQKKCSFLCDVTMKSVDGKEFPCHKCVLCARLEYFHSMLSSSWIEASSCAALEMPIHSDILKVILDYLYTDEAVVIKESQNVDFICSVLVVADQLLITRLKEICEVALTEKLTLKNAAMLLEFAAMYSAKQLKLSCLQFIGLNMAALLEARSLDVLSDGVLKDLSEFYRKMIPAMDRRVITPYQDGPDISYLEVEDGDIFLKEEINMEQNHSETMFKKAKTKAKKKPRKRSDSSGGYNLSDIIQSPSSTGLLKSGKTNSVESLPELLTSDSEGSYAGVGSPRDLQSPDFTTGFHSDKIEAKVKPYVNGTSPVYSREDLKPWEKSPILKISAPQPIPSNRIDTTSSASWVAGSFSPVSPPVVDLRTIMEIEESRQKCGATPKSHLGKTVSHGVKLSQKQRKMIALTTKENNSGMNSMETVLFTPSKAPKPVNAWASSLHSVSSKSFRDFLLEEKKSVTSHSSGDHVKKVSFKGIENSQAPKIVRCSTHGTPGPEGNHISDLPLLDSPNPWLSSSVTAPSMVAPVTFASIVEEELQQEAALIRSREKPLALIQIEEHAIQDLLVFYEAFGNPEEFVIVERTPQGPLAVPMWNKHGC [IBTK],-0.61,50.8,0.351,52.7
